Experimental data reported in FireProtDB (doi:10.1111/j.1432-1033.1994.tb18664.x).

B1: Ribonuclease HI, P0A7Y4 (parent)
chain: MLKQVEIFTDGSCLGNPGPGGYGAILRYRGREKTFSAGYTRTTNNRMELMAAIVALEALKEHCEVILSTDSQYVRQGITQWIHNWKKRGWKTADKKPVKNVDLWQRLDAALGQHQIKWEWVKGHAGHPENERCDELARAAAMNPTLEDTGYQVEV

Variants of: B1
Details: Escherichia coli (strain K12), Thermal, CD, NaCl 0.1 M, reversible: yes, structure 2RN2, whole UniProt chain shown
[1] = pH 5.5, 53.1 °C, Sodium acetate 20 mM

Variant	ddG of mutation (higher = less stable) (pH 3, 50 °C, glycine-HCl 10 mM) [kcal/mol]	ddG of mutation (higher = less stable) [1] [kcal/mol]	Tm (pH 5.5, Sodium acetate 20 mM) [°C]	change of melting temperature, mutant - wild type (higher = more stable) (pH 5.5, Sodium acetate 20 mM) [°C]	unfolding enthalpy (van 't Hoff) (pH 5.5, Sodium acetate 20 mM) [kcal/mol]	Tm (pH 3, glycine-HCl 10 mM) [°C]	change of melting temperature, mutant - wild type (higher = more stable) (pH 3, glycine-HCl 10 mM) [°C]	unfolding enthalpy (van 't Hoff) (pH 3, glycine-HCl 10 mM) [kcal/mol]
MLKQVEIFTDGSCLGNPGPGGYGAILRYRGREKTFSAGYTRTTNNRMELMAAIVALEALKEHCEVILSTDSQYVRQGITQWIHNWKKRGWKTADKKPVKNVDLWQRLDAALGQHQIKWEWVKGHAGHPENERCAELARAAAMNPTLEDTGYQVEV [D134A]	-0.89	-1.51	58.6	5.5	118	–	–	–
MLKQVEIFTDGSCLGNPGPGGYGAILRYRGREKTFSAGYTRTTNNRMELMAAIVALEALKEHCEVILSTDSQYVRQGITQWIHNWKKRGWKTADKKPVKNVDLWQRLDAALGQHQIKWEWVKGHAGHPENERCIELARAAAMNPTLEDTGYQVEV [D134I]	-0.69	-1.27	57.7	4.6	101	52.3	2.3	105
MLKQVEIFTDGSCLGNPGPGGYGAILRYRGREKTFSAGYTRTTNNRMELMAAIVALEALKEHCEVILSTDSQYVRQGITQWIHNWKKRGWKTADKKPVKNVDLWQRLDAALGQHQIKWEWVKGHAGHPENERCNELARAAAMNPTLEDTGYQVEV [D134N]	0.1	–	56.3	3.2	96.9	49.7	-0.3	110
MLKQVEIFTDGSCLGNPGPGGYGAILRYRGREKTFSAGYTRTTNNRMELMAAIVALEALKEHCEVILSTDSQYVRQGITQWIHNWKKRGWKTADKKPVKNVDLWQRLDAALGQHQIKWEWVKGHAGHPENERCHELARAAAMNPTLEDTGYQVEV [D134H]	-0.53	-1.94	–	–	–	51.7	1.7	106
MLKQVEIFTDGSCLGNPGPGGYGAILRYRGREKTFSAGYTRTTNNRMELMAAIVALEALKEHCEVILSTDSQYVRQGITQWIHNWKKRGWKTADKKPVKNVDLWQRLDAALGQHQIKWEWVKGHAGHPENERCQELARAAAMNPTLEDTGYQVEV [D134Q]	-0.48	-1.32	57.9	4.8	96.9	51.6	1.6	114
MLKQVEIFTDGSCLGNPGPGGYGAILRYRGREKTFSAGYTRTTNNRMELMAAIVALEALKEHCEVILSTDSQYVRQGITQWIHNWKKRGWKTADKKPVKNVDLWQRLDAALGQHQIKWEWVKGHAGHPENERCEELARAAAMNPTLEDTGYQVEV [D134E]	-0.72	-0.86	56.2	3.1	102	52.4	2.4	108
MLKQVEIFTDGSCLGNPGPGGYGAILRYRGREKTFSAGYTRTTNNRMELMAAIVALEALKEHCEVILSTDSQYVRQGITQWIHNWKKRGWKTADKKPVKNVDLWQRLDAALGQHQIKWEWVKGHAGHPENERCSELARAAAMNPTLEDTGYQVEV [D134S]	-0.26	-1.08	–	–	–	50.9	0.9	106
MLKQVEIFTDGSCLGNPGPGGYGAILRYRGREKTFSAGYTRTTNNRMELMAAIVALEALKEHCEVILSTDSQYVRQGITQWIHNWKKRGWKTADKKPVKNVDLWQRLDAALGQHQIKWEWVKGHAGHPENERCLELARAAAMNPTLEDTGYQVEV [D134L]	-1.15	-1.51	58.6	5.5	96.4	53.8	3.8	118
MLKQVEIFTDGSCLGNPGPGGYGAILRYRGREKTFSAGYTRTTNNRMELMAAIVALEALKEHCEVILSTDSQYVRQGITQWIHNWKKRGWKTADKKPVKNVDLWQRLDAALGQHQIKWEWVKGHAGHPENERCTELARAAAMNPTLEDTGYQVEV [D134T]	-0.12	–	57	3.9	90.2	50.4	0.4	107
MLKQVEIFTDGSCLGNPGPGGYGAILRYRGREKTFSAGYTRTTNNRMELMAAIVALEALKEHCEVILSTDSQYVRQGITQWIHNWKKRGWKTADKKPVKNVDLWQRLDAALGQHQIKWEWVKGHAGHPENERCVELARAAAMNPTLEDTGYQVEV [D134V]	-0.31	-1.12	57.2	4.1	99	51.1	1.1	107
